Data published in US20250002588A1 (DIAGONAL THERAPEUTICS, published 2025).
Changes are numbered by the printed parent chain.

B1: DGL877 (bispecific antibody)
chain 1: not shown
chain 2: EVQLLESGGGLVQPGGSLRLSCAASGFTFSDYYMTWIRQAPGKGLEWVSSISGGSTYYADSRKGRFTISRDNSENTLYLQMNSLRAEDTAVYYCARDFGVAGWFGQYGMDVWGQGTLVTVSSGGGGSGGGGSGGGGSQSVLTQPPSASGTPGQRVTISCTGSASNIGAGYDVHWYQQLPGTAPKLLIYRSNQRPSGVPDRFSGSKSGTSASLAISGLRSEDEADYYCSSYAGNYNLVFGGGTKLTVLDKTHTCPPCPAPEAAGAPSVFLFPPKPKDTLMISRTPEVTCVVVDVSHEDPEVKFNWYVDGVEVHNAKTKPREEQYNSTYRVVSVLTVLHQDWLNGKEYKCKVSNKALPAPIEKTISKAKGQPREPQVCTLPPSRDELTKNQVSLSCAVKGFYPSDIAVEWESNGQPENNYKTTPPVLDSDGSFFLVSKLTVDKSRWQQGNVFSCSVMHEALHNHYTQKSLSLSPGWSHPQFEK
B2: DGL879 (bispecific antibody)
chain 1: not shown
chain 2: B1 chain 2 with A163S, N233L
B3: DGL878 (bispecific antibody)
chain 1: not shown
chain 2: B1 chain 2 with A163S, S195A
B4: DGL880 (bispecific antibody)
chain 1: not shown
chain 2: B1 chain 2 with S195A, N233L
B5: DGL945 (bispecific antibody, human IgG1, lambda)
heavy: EVQLLESGGGLVQPGGSLRLSCAASGFTFSDYYMTWIRQAPGKGLEWVSSISGGSTYYADSRKGRFTISRDNSENTLYLQMNSLRAEDTAVYYCARDFGVAGWFGQYGMDVWGQGTLVTVSSPLAPEVQLLESGGGLVQPGGSLRLSCAASGFTFSSYAMSWVRQAPGKGLEWVANINQDGSEKNYVDSMRGRFTISRDNSKNTLYLQMNSLRAEDTAVYYCAREFDYWGQGTLVTVSSASTKGPSVFPLAPSSKSTSGGTAALGCLVKDYFPEPVTVSWNSGALTSGVHTFPAVLQSSGLYSLSSVVTVPSSSLGTQTYICNVNHKPSNTKVDKKVEPKSCDKTHTCPPCPAPEAAGAPSVFLFPPKPKDTLYITREPEVTCVVVDVSHEDPEVKFNWYVDGVEVHNAKTKPREEQYNSTYRVVSVLTVLHQDWLNGKEYKCKVSNKALPAPIEKTISKAKGQPREPQVYTLPPSRDELTKNQVSLTCLVKGFYPSDIAVEWESNGQPENNYKTTPPVLDSDGSFFLYSKLTVDKSRWQQGNVFSCSVMHEALHNHYTQKSLSLSPG
light: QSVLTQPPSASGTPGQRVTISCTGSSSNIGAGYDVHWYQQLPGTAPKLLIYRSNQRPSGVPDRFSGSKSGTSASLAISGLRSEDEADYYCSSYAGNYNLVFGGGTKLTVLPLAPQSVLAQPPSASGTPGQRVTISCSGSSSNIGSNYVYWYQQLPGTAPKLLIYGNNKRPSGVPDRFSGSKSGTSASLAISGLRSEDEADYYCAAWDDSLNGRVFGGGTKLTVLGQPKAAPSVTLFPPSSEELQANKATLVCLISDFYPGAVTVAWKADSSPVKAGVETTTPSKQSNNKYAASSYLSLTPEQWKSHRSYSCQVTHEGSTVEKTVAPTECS
B6: DGL947 (bispecific antibody, human IgG1, lambda)
heavy: B5 heavy with T35N, R62V, Y107F, A159W, N185Y, F226Y
light: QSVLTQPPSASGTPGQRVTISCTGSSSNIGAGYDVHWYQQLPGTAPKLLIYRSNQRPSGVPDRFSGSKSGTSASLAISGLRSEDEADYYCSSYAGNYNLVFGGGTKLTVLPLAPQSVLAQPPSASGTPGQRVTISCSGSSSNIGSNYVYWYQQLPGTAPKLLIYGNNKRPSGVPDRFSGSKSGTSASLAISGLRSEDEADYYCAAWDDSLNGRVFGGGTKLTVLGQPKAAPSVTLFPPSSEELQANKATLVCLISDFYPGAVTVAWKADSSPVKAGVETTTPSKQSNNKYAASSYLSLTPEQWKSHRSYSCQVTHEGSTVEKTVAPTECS
B7: DGL1146 (bispecific antibody, human IgG1, lambda)
heavy: B5 heavy with Y374M, T376S, E378T, M550L, N556S
light: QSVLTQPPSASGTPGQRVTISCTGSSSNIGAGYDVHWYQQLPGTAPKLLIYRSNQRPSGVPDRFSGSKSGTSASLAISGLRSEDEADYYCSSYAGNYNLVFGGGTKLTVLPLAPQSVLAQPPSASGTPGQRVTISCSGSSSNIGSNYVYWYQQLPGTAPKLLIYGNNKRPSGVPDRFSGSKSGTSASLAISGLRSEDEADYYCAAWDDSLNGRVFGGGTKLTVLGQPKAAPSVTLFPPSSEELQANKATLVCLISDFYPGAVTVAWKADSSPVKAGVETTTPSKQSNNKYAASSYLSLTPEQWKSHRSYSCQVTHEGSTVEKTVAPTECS
B8: DGL949 (bispecific antibody, human IgG1, lambda)
heavy: B5 heavy with T35N, R62V, Q106Y, A159W, N178K, Y228F
light: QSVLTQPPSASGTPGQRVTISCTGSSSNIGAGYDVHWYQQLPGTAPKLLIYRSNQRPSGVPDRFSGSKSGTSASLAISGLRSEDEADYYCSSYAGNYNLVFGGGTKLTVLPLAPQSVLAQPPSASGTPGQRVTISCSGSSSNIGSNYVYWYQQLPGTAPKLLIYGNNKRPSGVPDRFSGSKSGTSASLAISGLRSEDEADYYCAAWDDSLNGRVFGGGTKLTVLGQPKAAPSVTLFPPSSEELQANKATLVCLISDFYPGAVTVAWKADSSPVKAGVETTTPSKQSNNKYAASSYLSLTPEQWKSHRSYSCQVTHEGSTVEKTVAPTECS

target: T1, ALK-1/BMPR-2 receptor pair of the PathHunter U2Os dimerization cells (DiscoverX 93-0962C3) (UniProt P37023 22-503; Q13873 27-1038); test: cell-based or functional assay
T1 sequence (P37023 22-503, chain 1 of 2): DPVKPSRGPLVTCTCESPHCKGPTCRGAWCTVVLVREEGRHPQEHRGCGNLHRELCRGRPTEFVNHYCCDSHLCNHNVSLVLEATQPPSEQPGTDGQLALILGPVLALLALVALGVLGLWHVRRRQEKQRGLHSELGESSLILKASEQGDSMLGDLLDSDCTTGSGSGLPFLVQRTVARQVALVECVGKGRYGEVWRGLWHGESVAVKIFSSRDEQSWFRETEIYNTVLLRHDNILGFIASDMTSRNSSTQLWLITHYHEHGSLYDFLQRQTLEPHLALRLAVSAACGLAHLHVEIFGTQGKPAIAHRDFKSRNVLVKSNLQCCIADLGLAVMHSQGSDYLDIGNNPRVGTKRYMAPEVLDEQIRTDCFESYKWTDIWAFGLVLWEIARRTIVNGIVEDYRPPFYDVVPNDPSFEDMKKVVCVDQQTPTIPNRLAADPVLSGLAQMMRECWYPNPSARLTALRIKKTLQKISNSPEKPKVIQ
T1 sequence (Q13873 27-1038, chain 2 of 2): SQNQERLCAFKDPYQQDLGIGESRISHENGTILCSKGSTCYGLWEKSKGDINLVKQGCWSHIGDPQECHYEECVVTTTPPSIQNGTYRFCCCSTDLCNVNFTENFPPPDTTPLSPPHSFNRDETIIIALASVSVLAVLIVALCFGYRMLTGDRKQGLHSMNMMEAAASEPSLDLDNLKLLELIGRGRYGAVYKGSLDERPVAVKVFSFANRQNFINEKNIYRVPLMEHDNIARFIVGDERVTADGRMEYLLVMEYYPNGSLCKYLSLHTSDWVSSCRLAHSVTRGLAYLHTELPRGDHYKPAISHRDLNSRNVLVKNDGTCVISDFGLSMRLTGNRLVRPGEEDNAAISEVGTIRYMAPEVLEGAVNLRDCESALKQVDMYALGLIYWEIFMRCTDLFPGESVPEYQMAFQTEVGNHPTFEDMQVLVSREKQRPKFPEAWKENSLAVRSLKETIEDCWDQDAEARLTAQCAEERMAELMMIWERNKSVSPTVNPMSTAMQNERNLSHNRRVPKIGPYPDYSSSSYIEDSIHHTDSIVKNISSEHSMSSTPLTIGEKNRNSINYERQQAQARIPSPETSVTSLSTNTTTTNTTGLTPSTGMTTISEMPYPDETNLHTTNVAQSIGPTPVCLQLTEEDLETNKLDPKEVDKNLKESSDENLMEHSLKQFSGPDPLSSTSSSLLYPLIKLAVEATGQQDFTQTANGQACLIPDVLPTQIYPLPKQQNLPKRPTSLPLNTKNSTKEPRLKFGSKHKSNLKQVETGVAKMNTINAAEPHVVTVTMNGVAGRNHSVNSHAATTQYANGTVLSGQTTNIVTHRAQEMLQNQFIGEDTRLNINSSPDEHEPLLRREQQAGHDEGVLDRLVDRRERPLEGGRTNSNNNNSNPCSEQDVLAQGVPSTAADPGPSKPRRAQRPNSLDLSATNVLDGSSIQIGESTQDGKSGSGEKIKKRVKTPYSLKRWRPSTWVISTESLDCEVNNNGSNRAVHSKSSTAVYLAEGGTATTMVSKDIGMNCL

% Emax BMP9 | Emax (RLU) | Binder
76% | 1.95e+06 RLU | B1
71% | 1.81e+06 RLU | B2
73% | 1.88e+06 RLU | B3
66% | 1.68e+06 RLU | B4

target: T1, ALK-1/BMPR-2 receptor pair of the …; test: cell-based or functional assay; remark: another data set of the same source

% Emax BMP9 | Binder
78% | B5
47% | B6
78% | B7
42% | B8
